# Experimental data as given in article PMC5498155 (Bioorganic & medicinal chemistry, 2016).
# Entries after “also recorded” stand apart in the source; their conditions may differ.
# Target: CXCR4 (Homo sapiens, UniProt P61073)
# Experiment: Competitive CXCR4 binding assay
# Conditions: CHO cells stably transfected with CXCR4; 12G5 antibody competition
# Sequence of CXCR4 (P61073 whole entry): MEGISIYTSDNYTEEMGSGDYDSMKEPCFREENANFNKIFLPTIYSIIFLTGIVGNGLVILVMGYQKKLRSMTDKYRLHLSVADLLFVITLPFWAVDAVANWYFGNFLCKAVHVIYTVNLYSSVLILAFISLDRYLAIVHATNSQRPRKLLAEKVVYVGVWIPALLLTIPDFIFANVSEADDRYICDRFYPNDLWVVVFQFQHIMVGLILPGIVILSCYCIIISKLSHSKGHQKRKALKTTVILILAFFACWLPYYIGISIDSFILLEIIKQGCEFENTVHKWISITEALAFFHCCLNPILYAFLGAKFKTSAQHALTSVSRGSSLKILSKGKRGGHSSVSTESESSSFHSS
substance,measurement,value
SDF-1α1–8 (KPVSLSYR) [ligand 19],CXCR4 binding activity (in words),very low CXCR4 binding affinity; also recorded: No binding
